Results: patent publication US20230242601A1, “PEPTIDE USED TO PREVENT OR TREAT SYNUCLEINOPATHY” (TOHOKU UNIVERSITY, priority 2020, published 2023)
Where no end group is shown, it is not given here.

Experiments:
[1] = biological target: FABP3 (Homo sapiens, UniProt P05413); test: QCM (quartz crystal microbalance) binding analysis of immobilized FABP3 with α-synuclein or its peptides; conditions: for binding affinity for FABP3 relative to the natural sequence (SynP130-140) / binding affinity for FABP3 compared with the natural sequence (SynP130-140), in words: immobilized FABP3; for binding to FABP3: His-tagged FABP3 immobilized, 2.5-20 nM analyte, 50 mM Tris-HCl pH 7.4, 25° C.
Method: The substrate was washed with purified water, then 500 μL of a Ni solution (20 mM HEPES-NaOFH buffer, pH 7.5, 150 mM NaCl, 50 mM EDTA, 10 mM NiSO4) was added, and the substrate was allowed to stand at room temperature for 10 minutes. The substrate was washed with purified water, then 100 nM of FABP3 fused with a His-tag at the N-terminus diluted with a 50 mM Tris-HCl pH 7.4 was added to a quartz sensor and treated for one minute to be immobilized. […] The measurement was performed in a 500 μL liquid under conditions of 25° C. and 1000 rpm for three minutes. After the measurement, Kd, kon, and koff were each calculated with AQUA 2.0 software (Initium).
FABP3 and various mutants of SynP130-140 were interacted in the same manner as in Example 1. The measurement was performed by adding each peptide at any concentration to the immobilized FABP3.
The detailed experimental method is as described in the method of Example 1.

[2] = biological target: α-synuclein and FABP3 (Syn-FABP3 complex) (Homo sapiens, UniProt P05413); test: Thioflavin T fluorescence / TEM observation of α-synuclein amyloid fibril formation with FABP3 and peptide; format: biochemical
Method: An ARVO X4 (Perkin Elmer) was used for shaking and measuring fluorescence values over time in the fibril formation process of Syn. For the measurement, the samples were added to a 96-well plate (8×12-well plate; Greiner, Kremsmuenster, Austria) to give 150 μL/well, and the fluorescence (Ex of 440 nm and Em of 486 nm) was measured every 15 minutes while the well plate was continuously shaken at 37° C. […] Samples after 1800 minutes obtained after the measurement were measured with a transmission electron microscope (TEM) (JEOL JEM-1400 Plus). To a collodion membrane (400 mesh; Nisshin EM, Tokyo, Japan), 10 μL of the sample was added and allowed to stand at room temperature for two minutes, then washed with 5 μL of purified water, stained with 5 μL of a 10% EM stain solution for one minute, and then washed with 5 μL of purified water. This was air-dried overnight and then measured.
The thio-T measurement and the measurement with a TEM were performed in the same manner as in Example 3.
The thio-T measurement and the measurement with a TEM were performed in the same manner as in Example 3. The Thio-T measurement was performed for samples to each of which SynP130-140 was added at the beginning (0 hour), after 3 hours, 8 hours, or 24 hours.

[3] = system: cultured dopaminergic nerve cells; test: Antagonistic effect of C-terminal peptide on uptake of ATTO-550-labeled α-synuclein monomer into cultured dopaminergic nerves; format: cell-based, mouse; conditions: 1 μM peptide with 1 μM ATTO-550-labeled α-synuclein monomer, 48 hours; p<0.0001 vs control
Method: Cultured dopaminergic nerves were prepared according to the method (Kawahata et al. 2019) already described. Specifically, the uterus was aseptically removed from a C57BL6N mouse on day 15.5 of pregnancy by abdominal midline incision under deep isoflurane anesthesia, and the fetal mesencephalon was removed in ice-cold Hank's balanced salt solution (HBSS) under a stereomicroscope. The tissue was then dispersed by treatment with a nerve cell suspension (Sumitomo Bakelite) at 37° C. for 30 minutes, the dispersion was centrifuged at 1000 rpm for 5 minutes, and then the supernatant was discarded. The cell pellet was dispersed, then a removal solution (Sumitomo Bakelite) was added, and the mixture was centrifuged at 900 rpm for 5 minutes. The supernatant was then removed, the pellet was suspended in Eagle's minimal essential medium (EMEM) and seeded on a poly-L-lysine-coated chamber plate (Iwaki). […] Values are mean±SEM (n>20), and one-way ANOVA with Tukey test was performed for all the groups. The conceptual diagram of the synthesized α-synuclein is illustrated in C.

α-synuclein and FABP3 (Syn-FABP3 complex), sequence (P05413 whole entry, species assumed, one chain of several): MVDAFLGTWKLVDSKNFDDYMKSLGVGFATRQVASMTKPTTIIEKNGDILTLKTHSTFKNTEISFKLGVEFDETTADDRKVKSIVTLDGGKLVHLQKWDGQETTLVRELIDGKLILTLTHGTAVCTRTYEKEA
FABP3, sequence (P05413 2-133 limits assumed): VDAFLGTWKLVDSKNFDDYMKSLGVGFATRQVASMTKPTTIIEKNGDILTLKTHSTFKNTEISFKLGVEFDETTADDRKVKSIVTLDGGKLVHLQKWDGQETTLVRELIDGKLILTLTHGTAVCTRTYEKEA

EEGFQDYEPEA [Y133F] was tested, and the Kd ([1]; QCM, binding to FABP3) was 0.1 nM, the “binding affinity for FABP3 relative to the natural sequence (SynP130-140)” value ([1]; QCM) was “two-fold stronger” and the “amyloid aggregate formation of α-synuclein, concentration dependence” value ([2]; peptide at 0.1, 0.5 or 1 equivalent to 69 μM α-synuclein and 69 μM FABP3) was “preferentially binds to FABP3 in a dose-dependent manner”.
In the case of EGYQDYEPEA [10aa], the “intracellular uptake of fluorescently labeled α-synuclein (ATTO fluorescence intensity)” value [3] is reported as “inhibited the intracellular uptake”.
In the case of FABP3: fatty acid-binding protein 3, the “aggregation of synuclein on adding FABP3 alone” value ([2]; equimolar FABP3 added to α-synuclein, no peptide, Thio-T) is reported as “completely suppressed the aggregation of synuclein”.
In the case of “SynP2-10: peptide of the N-terminal region of human α-synuclein, second to tenth amino acids (DVFMKGLSKA; partial peptide of alpha-synuclein) [reference compound]”, the “binding to FABP3” value ([1]; QCM) is reported as “hardly bound to FABP3”.
“SynP73-96: peptide of the NAC region of human α-synuclein, 73th to 96th amino acids [reference compound]” was tested, and the “binding to FABP3” value ([1]; QCM) was “hardly bound to FABP3”.
In the case of “SynP130-140: peptide of the C-terminal region of human α-synuclein composed of the 130th to 140th amino acids (EEGYQDYEPEA; partial peptide of alpha-synuclein)”, the “affinity for FABP3 compared with Syn” value [1] is reported as “stronger affinity for FABP3”, the “binding to FABP3” value ([1]; QCM) is reported as “bound to FABP3 in a dose dependent manner” and the “amyloid fibril aggregate formation of α-synuclein” value ([2]; FABP3, α-synuclein and peptide added simultaneously, 1:1:1 molar ratio (69 μM each), Thio-T, 37° C.) is reported as “forms amyloid tibril aggregates”. The “release of Syn from the Syn-FABP3 complex and amyloid fibril formation” value ([2]; equimolar peptide added to the preformed 1:1 complex at 0, 3, 8 or 24 hours) was “releases Syn from FABP3”.
In the case of “Y133F/Y136F: SynP130-140 mutant in which tyrosine at position 133 and position 136 were both changed to phenylalanine (EEGFQDFEPEA)”, the “binding affinity for FABP3 relative to the natural sequence (SynP130-140)” value ([1]; QCM) is reported as 2 fold.
For “Y133F/Y136W: SynP130-140 mutant with tyrosine 133 changed to phenylalanine and tyrosine 136 changed to tryptophan (EEGFQDWEPEA)”, the “binding affinity for FABP3 compared with the natural sequence (SynP130-140), in words” value ([1]; QCM) was “failed to further strengthen the binding affinity”.
For “Y133W/Y136W: peptide in which the 133rd and 136th tyrosines in SynP130-140 were replaced by tryptophans (EEGWQDWEPEA)”, the “binding affinity for FABP3 compared with the natural sequence (SynP130-140), in words” value ([1]; QCM) was “did not change the binding affinity”.
With “Y136F: SynP130-140 mutant in which tyrosine at position 136 was changed to phenylalanine (EEGYQDFEPEA)” the “binding affinity for FABP3 compared with the natural sequence (SynP130-140), in words” value ([1]; QCM) was “about the same affinity”.
For “Y136W: peptide in which the 136th tyrosine in SynP130-140 was replaced by tryptophan (EEGYQDWEPEA)”, the “binding affinity for FABP3 compared with the natural sequence (SynP130-140), in words” value ([1]; QCM) was “about the same affinity”.
